Assay [1] deals with T1, CD38 protein on the surface of Raji, Daudi, Ramos and RPMI8226 cells (human, UniProt P28907 1-300). Description: cell-based or functional assay.
In assay [2] the target is T1, CD38 protein on the surface of Raji, …. Briefly: flow cytometry on Raji cells. (In general: Flow cytometry measures light scatter and fluorescence of single cells or particles in a stream.)
Description: (§1) The logarithmic growth phase cells were collected, adjusted to a cell density of 5×10⁶ cells/mL, and pre-cooled on ice. […] 100 μL of cells were taken, and an equal volume of the diluted antibody was added for reaction at 4° C. for 30 min in the dark. After the completion of reaction, the cells were washed twice. The cells were resuspended in 100 μL of the diluted PE Mouse Anti-Human IgG secondary antibodies (purchased from BD Pharmingen), and reacted at 4° C. in the dark for 30 min. After the completion of reaction, the cells were washed twice with a pre-cooled normal saline containing 2% FBS. The cells were resuspended in 400 μL of 1% paraformaldehyde. Flow cytometry (BD Calibur) was used to analyze the binding ability of antibodies to cell surface antigens.
The target in the next assay is T2, CD38-His fusion protein (UniProt P28907 43-300, limits assumed).
T2 construct: also called target antigen CD38-His; not shown: His tag
Description: ELISA on coated CD38-His, anti-human IgG HRP.

In assay [3] the target is T1, CD38 protein on the surface of Raji, …. Briefly: flow cytometry on Ramos cells.
Description: as §1
Assay [4] has the same target. Briefly: flow cytometry on RPMI8226 cells.
Description: as §1
Assay [5] has the same target. Description: flow cytometry on Daudi cells.
Description: as §1
The target of the next assay is BSA (BOVOGEN) (UniProt P02769 25-607). Briefly: ELISA on coated protein, anti-human IgG HRP. On the technique in general: In an ELISA, binding on a coated surface is turned into a signal by an enzyme label.
Chain of BSA (BOVOGEN) (P02769 25-607 limits assumed): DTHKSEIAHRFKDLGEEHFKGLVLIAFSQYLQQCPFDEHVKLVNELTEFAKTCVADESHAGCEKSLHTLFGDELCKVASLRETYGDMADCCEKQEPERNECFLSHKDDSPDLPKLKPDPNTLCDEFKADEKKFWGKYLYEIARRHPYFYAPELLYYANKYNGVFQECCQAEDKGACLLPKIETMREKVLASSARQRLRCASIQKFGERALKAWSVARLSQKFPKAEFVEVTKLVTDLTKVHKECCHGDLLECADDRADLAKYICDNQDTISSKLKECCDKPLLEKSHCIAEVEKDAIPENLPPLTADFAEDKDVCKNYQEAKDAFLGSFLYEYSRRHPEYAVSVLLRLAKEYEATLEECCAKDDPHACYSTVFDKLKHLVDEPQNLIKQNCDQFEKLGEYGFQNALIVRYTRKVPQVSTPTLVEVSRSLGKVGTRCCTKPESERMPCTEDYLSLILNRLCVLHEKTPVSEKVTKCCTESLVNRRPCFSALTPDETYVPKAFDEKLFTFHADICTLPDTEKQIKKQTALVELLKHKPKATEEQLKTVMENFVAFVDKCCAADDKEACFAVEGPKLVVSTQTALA
Assay [6] deals with T3, cynomolgus monkey CD38 extracellular protein (cynomolgus monkey, UniProt Q5VAN0 44-301).
T3 construct: extracellular domain; Purchased; also called CD38 protein molecules of cynomolgus monkeys; Cynomolgus CD38
T3 sequence (Q5VAN0 44-301): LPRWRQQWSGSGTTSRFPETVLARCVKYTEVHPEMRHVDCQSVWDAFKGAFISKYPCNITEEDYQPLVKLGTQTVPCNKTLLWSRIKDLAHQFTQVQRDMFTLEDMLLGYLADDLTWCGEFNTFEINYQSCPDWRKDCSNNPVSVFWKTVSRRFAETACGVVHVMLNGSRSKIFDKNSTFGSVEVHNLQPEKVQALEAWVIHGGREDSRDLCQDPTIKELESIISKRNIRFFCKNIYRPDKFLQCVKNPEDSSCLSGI
Description: ELISA on coated CD38 extracellular protein.
Description: (§2) The CD38 extracellular proteins (Beijing Yiqiao Shenzhou Biotechnology Co., Ltd.) of different species of human (Human), mouse (Mouse), rat (Rat), cynomolgus monkey (Cynomolgus) and the like were respectively used to coat ELISA strips at 1 mg/ml at 40 overnight. After washing with PBST, 10% fetal bovine serum was added and blocked at 370 for 1 hour. […] After washing with PBST, horseradish peroxidase-labeled goat anti-human IgG HRP secondary antibodies (purchased from Thermo Fisher Scientific) was added and reacted at room temperature for 30 minutes. The plate was washed with PBST (5 times), and the remaining drops were removed as possible on the absorbent paper. 100 ml of TMB (purchased from eBioscience) was added to each well, and placed at room temperature (20±5° C.) in the dark for 1-5 min. 100 ml of 2N H₂SO₄ stop solution was added to each well to quench the substrate reaction, and the OD value was read at 450 nm with a microplate, to analyze the binding ability of the antibody to CD38 protein of different species.

The target of assay [7] is T4, mouse CD38 extracellular protein (mouse, UniProt P56528 45-304).
T4 construct: extracellular domain; Purchased; also called CD38 protein molecules of mice
T4 sequence (looked up): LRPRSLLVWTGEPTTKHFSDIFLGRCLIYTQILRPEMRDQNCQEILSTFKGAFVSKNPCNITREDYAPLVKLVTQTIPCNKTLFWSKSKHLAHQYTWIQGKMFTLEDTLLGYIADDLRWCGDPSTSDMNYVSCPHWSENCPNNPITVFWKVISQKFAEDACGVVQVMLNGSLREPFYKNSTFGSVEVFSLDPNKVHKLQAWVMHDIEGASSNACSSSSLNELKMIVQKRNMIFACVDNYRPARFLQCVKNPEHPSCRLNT
Description: ELISA on coated CD38 extracellular protein.
Description: as §2

The target of assay [8] is T5, rat CD38 extracellular protein (rat, UniProt Q64244 45-303).
T5 construct: extracellular domain; Purchased; also called CD38 protein molecules of rats
T5 sequence (looked up): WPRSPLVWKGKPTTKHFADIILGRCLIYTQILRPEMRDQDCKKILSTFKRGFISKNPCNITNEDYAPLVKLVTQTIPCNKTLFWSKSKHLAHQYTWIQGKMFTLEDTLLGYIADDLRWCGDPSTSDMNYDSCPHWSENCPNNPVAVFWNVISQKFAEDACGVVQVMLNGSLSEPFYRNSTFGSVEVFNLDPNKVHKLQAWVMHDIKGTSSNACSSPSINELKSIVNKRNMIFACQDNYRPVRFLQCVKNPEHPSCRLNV
Description: ELISA on coated CD38 extracellular protein.
Description: as §2

Assay [9] has as its target T6, antigen CD38 (UniProt P28907 43-300, limits assumed).
T6 construct: Soluble antigen; also called CD38 antigen
Description: BIACORE SPR, antibody captured by anti-human IgG-Fab, CD38 as mobile phase.
Description: (§3) The antibody affinity was analyzed by BIACORE Biomacromolecule Interaction Apparatus (GE).

For assay [10], the target named is T6, antigen CD38. Briefly: BIACORE SPR by the method of Example 4. (In general: Surface plasmon resonance follows binding to a sensor surface in real time, without labels.)
Description: as §3
Assay [11] deals with T6, antigen CD38. Briefly: binding curve of FIG. 9; method not clearly stated.

Changes are numbered by the printed parent chain.

The source of these data is US20230250186A1 (published 2023).

Description for BSA (BOVOGEN): Various proteins, such as milk (Beijing Bomed Biotechnology Co., Ltd.), BSA (BOVOGEN), CD19 (Beijing Yiqiao Shenzhou Biotechnology Co., Ltd.), TROP2 (Beijing Yiqiao Shenzhou Biotechnology Co., Ltd.), CD47 (Beijing Magpel Biotech Technology Co., Ltd.), CD38 (Beijing Yiqiao Shenzhou Biotechnology Co., Ltd.), Gas6 (R&D) and AXL (ACRO Biosystems) were respectively used to coat ELISA strips at 1 mg/ml at 4° C. overnight. After washing with PBST, 10% fetal bovine serum was added and blocked at 37° C. for 1 hour. […] After washing with PBST, horseradish peroxidase-labeled goat anti-human IgG HRP secondary antibodies (purchased from ThermoFisher Scientific) was added and reacted at room temperature for 30 minutes. After washing the plate with PBST (5 times), the residual drops were removed as possible on the absorbent paper. 100 ml TMB (eBioscience) was added to each well and placed at room temperature (20±50) in the dark for 1-5 min. 100 ml of 2N H₂SO₄ stop solution was added to each well to quench the substrate reaction, and the OD value was read at 450 nm with a microplate reader to analyze the antibody-protein binding ability.
Description for CD38-His fusion protein: An ELISA plate was coated with a PBS solution containing 1 μg/ml of CD38-His fusion protein at 4° C. overnight. The plate was then washed with a PBS solution containing 0.01% Tween-20 (PBST). 10% fetal bovine serum was added to the PBST and blocked at 37° C. for 1 hour. […] After washing with PBST, horseradish peroxidase-labeled goat anti-human IgG HRP secondary antibodies (purchased from Thermo Fisher Scientific) was added and reacted at 37° C. for 30 minutes. Then, the plate was washed with PBST (5 times), and the residual liquid drops were removed as possible on an absorbent paper. 100 μl of TMB (purchased from eBioscience) was added to each well, and placed at room temperature (20±5° C.) in the dark for 1-5 minutes. 100 μl of 2N H₂SO₄ stop solution was added to each well to quench the substrate reaction. The OD value was read at 450 nm with a microplate reader, and the binding ability of the antibody to the target antigen CD38-His was analyzed.

B1: Daratumumab (DARZALEX) (antibody, V domains shown)
VH: EVQLLESGGGLVQPGGSLRLSCAVSGFTFNSFAMSWVRQAPGKGLEWVSAISGSGGGTYYADSVKGRFTISRDNSKNTLYLQMNSLRAEDTAVYFCAKDKILWFGEPVFDYWGQGTLVTVSS
VL: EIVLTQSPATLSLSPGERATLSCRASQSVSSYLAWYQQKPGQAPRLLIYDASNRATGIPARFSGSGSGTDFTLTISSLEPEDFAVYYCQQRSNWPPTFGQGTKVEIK
Broadly, the EC50 is the concentration that produces a half-maximal response. Take B1: the “ADCC EC50, Daudi target cells with NK92MI-CD16a effector cells (LDH release)” value in assay [1] stood at 0.0046 µg/mL. In addition, the “ADCC EC50, RPMI8226 target cells with NK92MI-CD16a effector cells (LDH release)” value in assay [1] was determined as 0.00494 µg/mL. The “ADCC EC50, Raji target cells with NK92MI-CD16a effector cells (LDH release)” value in assay [1] turned out to be 0.017 µg/mL. Further, the “ADCC EC50, Ramos target cells with NK92MI-CD16a effector cells (LDH release)” value in assay [1] was 0.00301 µg/mL. The concentration giving a half-maximal response (EC50) in assay [2] was 0.0493 µg/mL; with CD38-His fusion protein it was 0.151 µg/mL; in [3], 0.0951 µg/mL; in [4], 0.176 µg/mL; in assay [5] it was 0.0509 µg/mL.

B2: humanized antibody SG003 (antibody, V domains shown)
VH: QVQLLESGGGLVQPGGSLKLSCVASGFDFSLYWMNWVRQAPGKGLEWIGKINPDSSTINYTPSLKDKFFISRDNAKNTLYLQMTKVRSEDTALYYCARLWIATGGFDYWGQGTTLTVSS
VL: EIVMTQSPASLSASLGQRATISCRASSSVSSSAFSYVHWYQQKSGQPPKLLIYLASNLESGVPARFSGSGSGTDFTLTIHPVESEDVATYYCHHSRELPFTFGSGTKLEIKR
notes: Full antibody expressed in CHO-S cells from vector pCMV-163 with a human IgG constant region; also called SG003 antibody
Broadly, the Kd is a measure of binding affinity in units of concentration. Regarding B2, the binding result with BSA (BOVOGEN) is recorded as “no binding”; in assay [6], “binds”; in assay [7] it was “no binding”; in assay [8], “no binding”. For the same molecule, the “ADCC EC50, Daudi target cells with NK92MI-CD16a effector cells (LDH release)” value in [1] was found to be 0.00072 µg/mL. Also, the “ADCC EC50, RPMI8226 target cells with NK92MI-CD16a effector cells (LDH release)” value in [1] amounted to 0.00146 µg/mL. Further, in assay [1], the “ADCC EC50, Raji target cells with NK92MI-CD16a effector cells (LDH release)” value stood at 0.00697 µg/mL. Moreover, the “ADCC EC50, Ramos target cells with NK92MI-CD16a effector cells (LDH release)” value in assay [1] was 0.00069 µg/mL. Also, the half-maximal effective concentration (EC50) is 0.0344 µg/mL in assay [2], 0.0351 µg/mL in the assay with CD38-His fusion protein, 0.0815 µg/mL in [3] and 0.0367 µg/mL in assay [5]. This molecule also registered a Kd in the assay with antigen CD38 [9] of 321 pM.

B3: SG003M1 antibody (antibody, human IgG1, kappa, V domains shown)
VH: B2 VH with F27Y, D28N, W33Y, N52Q, D54E, N59Q, A102G, T103S
VL: B2 VL with T20S, S27N, F34Y, L58I, E59Q, E97Q, F100S
notes: also called randomly mutated antibody SG003M1-3
The term koff denotes the rate constant with which the complex falls apart. One may read the kon as a measure of how fast the partners come together. In the assay with antigen CD38 [10], B3 yielded a Kd of 239 pM, an off-rate (koff) of 0.000636 s⁻¹ and an association rate constant (kon) of 2.66e+06 M⁻¹ s⁻¹. In the assay with antigen CD38 [11], this molecule yielded an EC50 of 0.0157 µg/mL.

B4: SG003M3 antibody (antibody, human IgG1, kappa, V domains shown)
VH: B2 VH with N52S, T57S, I58L, L64V, F106Y, D107N
VL: B2 VL with S27N, S31T, L98V
notes: as for B3
In the assay with antigen CD38 [11], B4 showed an EC50 of 0.0061 µg/mL.

B5: SG003M2 antibody (antibody, human IgG1, kappa, V domains shown)
VH: B2 VH with N52S, D54N, T61S, W100Y, T103S
VL: B2 VL with F34Y, N57D, E59Q, F100Y, T101S
notes: as for B3
As for B5, the EC50 with antigen CD38 [11] came to 0.0278 µg/mL.
